The assay concerns intracellular proteome of ENR+CD and ENR organoids. In words: LC-MS/MS TMT proteomics of ENR+CD versus ENR organoids. The assay is classed as cell-based, C57BL/6 mice. The following applies: for Average logFC: ENR+CD versus ENR organoids, sample pairs in aggregate (n=4, 2 technical replicates from two biological donors); for M1-1 Log2 Median Normalized / M1-2 Log2 Median Normalized / M2-1 Log2 Median Normalized / M2-2 Log2 Median Normalized: protein abundance ratio ENR+CD versus ENR organoids, LC-MS/MS TMT proteomics; for M1-1 Log2 Median Normalized: sample pair M1-1; for M1-2 Log2 Median Normalized: sample pair M1-2; for M2-1 Log2 Median Normalized: sample pair M2-1; for M2-2 Log2 Median Normalized: sample pair M2-2; for change: up = enriched in ENR+CD, down = enriched in ENR, FDR<0.05 and log fold change cut-off.

B1: Q9JHT5 (protein, UniProt Q9JHT5 1-344, looked up)
chain: MAAGCCGVKKQKLSSSPPSGSGGGGGASSSSHCSGESQCRAGELGLGGAGTRLNGLGGLSGGGGSGGGGGCPLSPPQGCGGGGGGGGGGGSGSGGGGISLSPPLSCGVGTLLSTPAAATASSPSSSSSSPGSRKMVVSAEMCCFCFDVLYCHLYGYQQPRTPRFTNEPYPLFVTWKIGRDKRLRGCIGTFSAMNLHSGLREYTLTSALKDSRFPPMTRDELPRLFCSVSLLTNFEDVCDYLDWEVGVHGIRIEFINEKGSKRTATYLPEVAKEQGWDHIQTIDSLLRKGGYKAPITNEFRKTIKLTRYRSEKMTLSYAEYLAHRQHHHFQNGIGHPLPPYNHYS
modifications: full-length
With B1, the “Average logFC” value is given as 1.464, the “M1-1 Log2 Median Normalized” value came out at 1.463, the “M1-2 Log2 Median Normalized” value was 1.751 and the “M2-1 Log2 Median Normalized” value worked out at 1.5015. In addition, the “M2-2 Log2 Median Normalized” value is 0.056 and the change entry is listed as “up”.

B2: Q9JIB0 (protein, UniProt Q9JIB0 1-185, looked up)
chain: MEPNRNCPLFGGAFSAILPTGAIDVSDLRPVPDNQEVFCHPVTDQSLIIELLELQAHVQGEAAARYHFEDVGRVQGARAVHVLSVQPLCLENLSLRGCCQDAWSLSGKQQVAKENQQVAKDVTLHQALLRLPQYQTDLLLTFNQPPCHSRSLGPENLSCPPWSLSNFEQLVTSLTLHDPNLFGPQ
modifications: full-length
For B2, the “Average logFC” value was −1.426, the “M1-1 Log2 Median Normalized” value was −1.2, the “M1-2 Log2 Median Normalized” value is −1.555 and the “M2-1 Log2 Median Normalized” value was −1.6355. Further, the “M2-2 Log2 Median Normalized” value was −1.315 and the change result is reported as “down”.

B3: Q9ERZ0 (protein, UniProt Q9ERZ0 1-503, looked up)
chain: MDMGKGRPRLKLPQMPEAHPQKSCAPDIIGSWSLRNREQLRKRKAEAQGRQTSQWLLGEQKKRKYQRTGKGNKRGRKRQGNVEQKAEPWSQTERERVQEVLVSAEEETEHPGNSATEALPLVPSPTKAVPADQCSEAHQESIQCQERAIQNHSQTHLSPTTCQGIAVLQHSPKMCQDMAEPEVFSPNMCQETAVPQTYPPKALEEMAAAEPLSPKMCQETTVSPNHSSKVPQDMAGPEALSPNMCQEPTVPQEHTLKMCHDVARPEVLSPKTHQEMAVPKAFPCVTPGDAAGLEGCAPKALPQSDVAEGCPLDTTPTSVTPEQTTSDPDLGMAVTEGFFSEARECTVSEGVSTKTHQEAVEPEFISHETYKEFTVPIVSSQKTIQESPEPEQYSPETCQPIPGPENYSLETCHEMSGPEDLSIKTCQDREEPKHSLPEGAQKVGGAQGQDADAQDSENAGAFSQDFTEMEEENKADQDPEAPASPQGSQETCPENGIYSSALF
modifications: full-length
For B3, the “Average logFC” value is −1.361, the “M1-1 Log2 Median Normalized” value is on record as −1.833, the “M1-2 Log2 Median Normalized” value is recorded as −1.41 and the “M2-1 Log2 Median Normalized” value is −1.0155. Further, the “M2-2 Log2 Median Normalized” value was −1.185 and the change result is reported as “down”.

B4: Q9ERH4 (protein, UniProt Q9ERH4 1-427, looked up)
chain: MTVPSAEELDSFKYSDLQNLAKRLGLRANMKADKLLKALKAHLNPETRKENKNQDENQFSTDETEIHVSSEEQAETESGGHVTKTRRRRRKKHKTIHGIPTSQTLLQDHLEMKGTDSSNFQNQENQENQDPRDTAEVPSLPEQRPEDGNAASSGEGEVNDIKDSKKPLEKRSLCTDEFSKLGNNKRTSATTPNFKKLHEARFKKMESIDEYIMRKKKHLKEHSSLNELKLDKKGIVTPVPPRGRLSVPCTPARQQCPQGHSATKMNVRFSAATKDNEHKCSLTKTPARKSPHVTAPGSASKGQAVFRTPKSKATERTSIAVITPFKLMTEATQTPSSSKKPVFDLKASLSRPLNYKPHKGKLKPWGQAKENNSLNERVSRVTFHRKTYKQPHLQTREERWKRQEQERKEKKEKLLEARRNLGVTKAQ
modifications: full-length
As to B4, the “Average logFC” value is −1.264, the “M1-1 Log2 Median Normalized” value is −1.354, the “M1-2 Log2 Median Normalized” value is given as −0.911 and the “M2-1 Log2 Median Normalized” value was −1.2565. For the same molecule, the “M2-2 Log2 Median Normalized” value was −1.536 and the change entry is on record as “down”.

(Values after patent US11994512B2, “Single-cell genomic methods to generate ex vivo cell systems that recapitulate in vivo biology with improved fidelity” (Massachusetts Institute of Technology, priority 2018, dated 2024).)
